US11891427B2, “Amidated peptides and their deamidated counterparts displayed by non-HLA-a*02 for use in immunotherapy against different types of cancers” (Immatics Biotechnologies GmbH, priority 2020, dated 2024)

Key:
Assay in all cases: MHC binding assay (UV-ligand exchange, beta2m ELISA)
[1] = biological target: HLA-A*24:02 (Homo sapiens, UniProt P04439, D101N/D140Y/D185E/E176V/E190D/F33S/G103R/G107R/I119L/I121M/I306V/K335N/L105A/L180Q/L300P/N151K/N90K/Q86E/Q94H/R106L/R138H/R89G/T104I/T345S/V100E/W191G/Y123F); conditions: binding to HLA-A*24:02, ranged by peptide exchange yield
Description: (§1) Candidate peptides for T cell based therapies according to the present invention were further tested for their MHC binding capacity (affinity). The individual peptide-MHC complexes were produced by UV-ligand exchange, where a UV-sensitive peptide is cleaved upon UV-irradiation and exchanged with the peptide of interest as analyzed. Only peptide candidates that can effectively bind and stabilize the peptide-receptive MHC molecules prevent dissociation of the MHC complexes. To determine the yield of the exchange reaction, an ELISA was performed based on the detection of the light chain (β2m) of stabilized MHC complexes. The assay was performed as generally described in Rodenko et al. (Rodenko et al., 2006).
(§2) 96 well MAXISorp plates (NUNC) were coated over night with 2 μg/ml streptavidin in PBS at room temperature, washed 4× and blocked for 1 h at 37° C. in 2% BSA containing blocking buffer. Refolded HLA-A*02:01/MLA-001 monomers served as standards, covering the range of 15-500 ng/ml. Peptide-MHC monomers of the UV-exchange reaction were diluted 100-fold in blocking buffer. Samples were incubated for 1 h at 37° C., washed four times, incubated with 2 μg/ml HRP conjugated anti-β2m for 1 h at 37° C., washed again and detected with TMB solution that is stopped with […]. Absorption was measured at 450 nm. Candidate peptides that show a high exchange yield (preferably higher than 50%, most preferred higher than 75%) are generally preferred for a generation and production of antibodies or fragments thereof, and/or T cell receptors or fragments thereof, as they show sufficient avidity to the MHC molecules and prevent dissociation of the MHC complexes.

[2] = biological target: HLA-A*01:01 (Homo sapiens, UniProt P04439, A114D/A174V/A182V/D101N/D185E/E176A/E190D/L180R/Q94H/R68K/S129P/T187R/V100A/V91M/W191G); conditions: binding to HLA-A*01:01, ranged by peptide exchange yield
Description: as §1, §2

[3] = biological target: HLA-B*44:05 (Homo sapiens, UniProt P01889, A223V/A65T/A93T/A95T/D201E/D98Y/E176V/E187L/E204Q/E69K/G107R/H137Y/K202T/L105A/L119I/N104T/N87E/Q56L/Q94N/R106L/R155S/R180D/S101N/S121R/S35A/S48T/T118I/V36M/W191S/Y91S); conditions: binding to HLA-B*44:05, ranged by peptide exchange yield
Description: as §1, §2

[4] = biological target: HLA-B*07:02 (Homo sapiens, UniProt P01889); conditions: binding to HLA-B*07:02 ranged by peptide exchange yield
Description: as §1, §2

Row | Substance | Peptide exchange [1] | Peptide exchange [2] | also measured
1 | 1 (VHDFTLPSW) [compound 1] | ++ (≥20% = ++) |  | 
2 | 2 (FFQDSTFSF) [compound 2] | ++++ (≥75% = ++++) |  | 
3 | 9 (IFDETGRF) [compound 9] | ++ (≥20% = ++) |  | 
4 | 13 (TANYDTSHY) [compound 13] |  | ++ (≥20% = ++) | 
5 | 15 (TEGDFTKEASTY) [compound 15] |  |  | Peptide exchange [3]: +++ (≥50% = +++)
6 | 16 (VTQDDTGFY) [compound 16] |  | ++++ (≥75% = ++++) | 
7 | 19 (MTDVDRDGTTAY) [compound 19] |  | ++++ (≥75% = ++++) | 
8 | 21 (APFKDVTEY) [compound 21] |  |  | Peptide exchange [4]: +++ (≥50% = +++)
9 | 23 (SYDETKIKF) [compound 23] | + (≥10% = +) |  | 
10 | 24 (FYDNSVIIF) [compound 24] | ++ (≥20% = ++) |  | 
11 | 26 (IYPDASLLIQNI) [compound 26] | ++++ (≥75% = ++++) |  | 
12 | 34 (LSDLSLADI) [compound 34] |  | ++ (≥20% = ++) | 
13 | 37 (RSLDCTVKTY) [compound 37] |  | +++ (≥50% = +++) | 
14 | 39 (LPFFTDKTLSF) [compound 39] |  |  | Peptide exchange [4]: ++++ (≥75% = ++++)
15 | 44 (KENQDHSYSL) [compound 44] |  |  | Peptide exchange [3]: ++++ (≥75% = ++++)
16 | 45 (YFVDVTTRI) [compound 45] | +++ (≥50% = +++) |  | 
17 | 46 (KEVDDTLLVNEL) [compound 46] |  |  | Peptide exchange [3]: ++++ (≥75% = ++++)
18 | 48 (FPYYLKIDY) [compound 48] |  |  | Peptide exchange [4]: +++ (≥50% = +++)
19 | 49 (PSDGSMHNY) [compound 49] |  | ++++ (≥75% = ++++) | 
20 | 50 (RSIDVTGQGF) [compound 50] |  | ++ (≥20% = ++) | 
21 | 52 (LTEVEKDATALY) [compound 52] |  | ++++ (≥75% = ++++) | 
22 | 54 (QYQDTTVSF) [compound 54] | +++ (≥50% = +++) |  | 
23 | 55 (VYTDISHHF) [compound 55] | ++++ (≥75% = ++++) |  | 
24 | 57 (FYDLSIQSF) [compound 57] | ++++ (≥75% = ++++) |  | 
25 | 58 (GTDQTGKGLEY) [compound 58] |  | +++ (≥50% = +++) | 
26 | 65 (IYQFARLDY) [compound 65] | ++ (≥20% = ++) |  | 

Row | Substance | Peptide exchange [1] | Peptide exchange [2] | also measured
27 | 66 (YHDQTISF) [compound 66] | + (≥10% = +) |  | 
28 | 68 (VFDETKNLL) [compound 68] | ++ (≥20% = ++) |  | 
29 | 73 (DESKYTWSW) [compound 73] |  |  | Peptide exchange [3]: ++++ (≥75% = ++++)
30 | 74 (LENMYDLTF) [compound 74] |  |  | Peptide exchange [3]: ++++ (≥75% = ++++)
31 | 75 (QEVDISLHY) [compound 75] |  |  | Peptide exchange [3]: ++++ (≥75% = ++++)
32 | 76 (TYLPTDASLSF) [compound 76] | ++++ (≥75% = ++++) |  | 
33 | 77 (KPREEQYDSTY) [compound 77] |  |  | Peptide exchange [3]: ++++ (≥75% = ++++)
34 | 78 (DETIWYVRF) [compound 78] |  |  | Peptide exchange [3]: ++++ (≥75% = ++++)
35 | 79 (FTDTSSYEY) [compound 79] |  | ++++ (≥75% = ++++) | 
36 | 80 (LTNDQTLRL) [compound 80] |  | +++ (≥50% = +++) | 
37 | 81 (VTETMGIDGSAY) [compound 81] |  | ++++ (≥75% = ++++) | 
38 | 82 (VTDVTEEHY) [compound 82] |  | ++++ (≥75% = ++++) | 
39 | 83 (TFVDASRTLY) [compound 83] |  | ++++ (≥75% = ++++) | 
40 | 86 (ILPDITTTY) [compound 86] |  | ++ (≥20% = ++) | 
41 | 88 (WLDRSTILY) [compound 88] |  | ++++ (≥75% = ++++) | 
42 | 91 (GVDDTSLLY) [compound 91] |  | ++++ (≥75% = ++++) | 
43 | 94 (YSIDVTNVM) [compound 94] |  | +++ (≥50% = +++) | 
44 | 95 (VYIDDSVEL) [compound 95] | ++++ (≥75% = ++++) |  | 
45 | 98 (AFDKTIVKL) [compound 98] | ++ (≥20% = ++) |  | 
46 | 100 (EYQDFSTLF) [compound 100] | ++++ (≥75% = ++++) |  | 
47 | 108 (DETHTLQF) [compound 108] |  |  | Peptide exchange [3]: ++++ (≥75% = ++++)
48 | 109 (DETAAYKIM) [compound 109] |  |  | Peptide exchange [3]: +++ (≥50% = +++)
49 | 110 (AESLAVHDI) [compound 110] |  |  | Peptide exchange [3]: +++ (≥50% = +++)
50 | 111 (GEYRCQTDL) [compound 111] |  |  | Peptide exchange [3]: ++++ (≥75% = ++++)
51 | 112 (AEFFDYTVRTL) [compound 112] |  |  | Peptide exchange [3]: ++++ (≥75% = ++++)
52 | 113 (TDFTKIASF) [compound 113] |  |  | Peptide exchange [3]: ++++ (≥75% = ++++)

Now from value to substance, other results behind:

Row | Peptide exchange [1] | Peptide exchange [2] | Substance | also measured
53 |  | ++ (≥20% = ++) | 4 (YIDDVTLI) [compound 4] | 
54 | +++ (≥50% = +++) |  | 5 (GYIDDVTLI) [compound 5] | 
55 |  | ++++ (≥75% = ++++) | 6 (ISDITEKNSGLY) [compound 6] | 
56 |  | ++ (≥20% = ++) | 7 (VTRDDTASY) [compound 7] | 
57 |  | ++ (≥20% = ++) | 10 (QVDGSLLVI) [compound 10] | 
58 |  | ++ (≥20% = ++) | 11 (NHITDTSLNLF) [compound 11] | 
59 |  | ++++ (≥75% = ++++) | 12 (ITDTSLNLF) [compound 12] | 
60 |  | ++++ (≥75% = ++++) | 18 (GTDKQDSTLRY) [compound 18] | 
61 |  | +++ (≥50% = +++) | 20 (TSDTSQYDTY) [compound 20] | 
62 |  | ++++ (≥75% = ++++) | 25 (FTDLITDESINY) [compound 25] | 
63 |  | ++++ (≥75% = ++++) | 33 (ISDGMDSSAHY) [compound 33] | 
64 | +++ (≥50% = +++) |  | 36 (YWDETLKEF) [compound 36] | 
65 | ++ (≥20% = ++) |  | 38 (KLTDNSNQF) [compound 38] | 
66 | ++++ (≥75% = ++++) |  | 43 (FFTDKTLSF) [compound 43] | 
67 |  | ++ (≥20% = ++) | 51 (RVDDITDQF) [compound 51] | 
68 |  | +++ (≥50% = +++) | 59 (ILFSDSTRLSF) [compound 59] | 
69 |  | +++ (≥50% = +++) | 60 (HVKDATMGY) [compound 60] | 

Row | Peptide exchange [1] | Peptide exchange [2] | Substance | also measured
70 | + (≥10% = +) |  | 64 (FHYDDTAGYF) [compound 64] | 
71 | ++ (≥20% = ++) |  | 67 (QAIDLSLNF) [compound 67] | 
72 | ++++ (≥75% = ++++) |  | 69 (KSYHDQTISF) [compound 69] | 
73 |  | ++++ (≥75% = ++++) | 84 (EVEGVIDGTYDY) [compound 84] | 
74 |  | ++ (≥20% = ++) | 85 (EVQDHSTSSY) [compound 85] | 
75 |  | ++++ (≥75% = ++++) | 87 (ITDDTVQTY) [compound 87] | 
76 |  | ++ (≥20% = ++) | 89 (HVSDVTVNY) [compound 89] | 
77 |  | ++++ (≥75% = ++++) | 90 (HVDNSNLNY) [compound 90] | 
78 |  | ++ (≥20% = ++) | 92 (GQYDDSLQAY) [compound 92] | 
79 |  | ++ (≥20% = ++) | 93 (HADLTTLTF) [compound 93] | 
80 | ++ (≥20% = ++) |  | 96 (IFVPTDRSL) [compound 96] | 
81 | ++++ (≥75% = ++++) |  | 97 (RYVNDYTNSF) [compound 97] | 
82 | ++++ (≥75% = ++++) |  | 99 (VYVDTTELAL) [compound 99] | 
83 | ++++ (≥75% = ++++) |  | 101 (VYLDASKVPGF) [compound 101] | 
84 | ++++ (≥75% = ++++) |  | 102 (IYPDGTLLI) [compound 102] | 
85 | ++ (≥20% = ++) |  | 103 (RQDESYLNF) [compound 103] | 
86 | ++ (≥20% = ++) |  | 104 (HLFYDVTVF) [compound 104] | 
